In US20170066831A1 (Janssen / Centocor, published 2017):

Legend:
[1] = target: T1, human ST2L, full length, on cells (human, UniProt Q01638 19-556); experiment: cell-based or functional assay
T1 sequence: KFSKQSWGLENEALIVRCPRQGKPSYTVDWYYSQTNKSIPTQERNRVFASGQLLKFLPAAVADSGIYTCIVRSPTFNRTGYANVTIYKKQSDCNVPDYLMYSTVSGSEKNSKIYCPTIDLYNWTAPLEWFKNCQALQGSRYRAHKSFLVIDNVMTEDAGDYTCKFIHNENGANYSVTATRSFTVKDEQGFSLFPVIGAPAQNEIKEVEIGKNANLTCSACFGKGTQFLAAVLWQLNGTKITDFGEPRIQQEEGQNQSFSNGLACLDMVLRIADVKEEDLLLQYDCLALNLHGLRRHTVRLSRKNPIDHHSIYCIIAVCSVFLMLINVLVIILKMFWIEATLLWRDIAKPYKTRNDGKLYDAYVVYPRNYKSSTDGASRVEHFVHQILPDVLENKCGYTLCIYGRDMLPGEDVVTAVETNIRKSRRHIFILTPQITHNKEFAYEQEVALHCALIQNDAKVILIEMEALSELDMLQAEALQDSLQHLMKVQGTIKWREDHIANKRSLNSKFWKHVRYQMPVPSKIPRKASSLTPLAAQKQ

[2] = target: T2, human ST2L extracellular domain with C-terminal His6 tag (human, UniProt Q01638 19-328); experiment: SPR, mAb captured, ST2L-ECD in solution
T2 construct: also called huST2L-ECD; ST2L-ECD
T2 sequence: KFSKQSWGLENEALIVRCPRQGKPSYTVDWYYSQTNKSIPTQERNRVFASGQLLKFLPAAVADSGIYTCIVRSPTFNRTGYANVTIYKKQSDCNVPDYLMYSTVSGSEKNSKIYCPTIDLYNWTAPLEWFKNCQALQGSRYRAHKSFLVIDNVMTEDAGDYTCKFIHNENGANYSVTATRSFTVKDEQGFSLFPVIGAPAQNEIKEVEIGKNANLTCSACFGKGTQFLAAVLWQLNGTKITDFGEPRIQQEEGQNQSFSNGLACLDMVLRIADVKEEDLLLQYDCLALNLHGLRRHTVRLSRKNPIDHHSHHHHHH

[3] = target: T3, cynomolgus (Macaca fascicularis) ST2L extracellular domain with C-terminal His6 tag (Macaca fascicularis (cynomolgus), UniProt Q01638 19-321 (human entry)); experiment: SPR, mAb captured, ST2L-ECD in solution
T3 construct: also called cyno ST2L-ECD; cynoST2L-ECD
T3 chain: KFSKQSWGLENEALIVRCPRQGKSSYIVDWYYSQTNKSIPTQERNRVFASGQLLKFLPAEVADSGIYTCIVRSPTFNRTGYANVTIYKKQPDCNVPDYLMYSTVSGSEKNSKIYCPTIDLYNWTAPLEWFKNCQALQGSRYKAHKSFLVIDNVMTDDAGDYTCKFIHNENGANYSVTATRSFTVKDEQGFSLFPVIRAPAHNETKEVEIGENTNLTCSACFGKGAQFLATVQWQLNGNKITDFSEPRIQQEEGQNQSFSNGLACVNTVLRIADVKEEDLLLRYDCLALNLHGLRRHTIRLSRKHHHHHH

[4] = target: T2, human ST2L extracellular domain with …; experiment: RLB ELISA: biotinylated IL-33 on coated huST2L-ECD, antibody titrated
Protocol: 96-well plate was coated with 50 μl of 4 μg/ml human ST2L-ECD (amino acids 19-328 of SEQ ID NO: 1) or 2 μg/ml cyno ST2L-ECD (amino acids 19-321 of SEQ ID NO: 2) having C-terminal His₆ tag in bicarbonate buffer at 4° C. for 16 hrs. All subsequent steps were performed at room temperature. Plate was blocked with 200 μl blocking buffer, and was washed 3 times with 300 μl of wash buffer containing PBS+0.05% Tween. 30 μl of various dilutions of anti-ST2L mAbs were added to the wells and incubated for 1 hour. For human receptor-ligand binding assay 20 μl of biotinylated human IL-33 (residues 112-270 of SEQ ID NO: 3) was added at 100 ng/ml final concentration and incubated for 30 minutes. For cyno receptor-ligand binding assay 20 μl of biotinylated cyno IL-33 (residues 112-269 of SEQ ID NO: 4) was added at 200 ng/ml final concentration and incubated for 30 minutes. The plate was washed 3 times with 300 μl of wash buffer. 50 μl of 0.2 μg/ml Streptavidin-HRP (Jackson Immunoresearch) was added and incubated for 30 min. The plate was washed 3 times with 300 μl of wash buffer containing PBS+0.05% Tween. 50 μl of TMB substrate (EMD Biosciences) was added to each well. Reaction was stopped by the addition of 100 μl of 0.2N Sulfuric Acid. OD450 were measured using Envision plate reader (Perkin Elmer).

Row | Binder | RGA IC50 [1] | Kd [2] | koff [2] | kon [2] | Kd [3] | koff [3] | kon [3] | IC50 [4]
1 | STLM209 (antibody, V domains shown, frameworks VH3-23 / Vk-L6) VH: EVQLLESGGGLVQPGGSLRLSCAASGFTFSIYDMIWVRQAPGKGLEWVSTIRGEGGGTSYADSVKGRFTISRDNSKNTLYLQMNSLRAEDTAVYYCARDPWSTEGSFFVLDYWGQGTLVTVSS VL: EIVLTQSPATLSLSPGERATLSCRASQSVDDDLAWYQQKPGQAPRLLIYDASNRATGIPARFSGSGSGTDFTLTISSLEPEDFAVYYCQQYITAPLTFGQGTKVEIK | 0.97 µg/mL | 0.026 nM | 0.00017 s⁻¹ | 6.59e+06 M⁻¹ s⁻¹ | 0.009 nM | 0.000311 s⁻¹ | 3.39e+07 M⁻¹ s⁻¹ | 0.32 µg/mL
2 | STLM211 (antibody, V domains shown, frameworks VH3-23 / Vk-L6) VH: EVQLLESGGGLVQPGGSLRLSCAASGFTFSGYAMIWVRQAPGKGLEWVSYIEGEGGETYYADSVKGRFTISRDNSKNTLYLQMNSLRAEDTAVYYCARDPWSTEGSFFVLDYWGQGTLVTVSS VL: EIVLTQSPATLSLSPGERATLSCRASQSVDDDLAWYQQKPGQAPRLLIYDASNRATGIPARFSGSGSGTDFTLTISSLEPEDFAVYYCQQYNDAITFGQGTKVEIK | 2.52 µg/mL | 0.029 nM | 0.000483 s⁻¹ | 1.7e+07 M⁻¹ s⁻¹ | 0.014 nM | 0.00139 s⁻¹ | 1e+08 M⁻¹ s⁻¹ | 0.28 µg/mL
3 | STLM214 (antibody, V domains shown, frameworks VH3-23 / Vk-L6) VH: EVQLLESGGGLVQPGGSLRLSCAASGFTFSSYDMFWVRQAPGKGLEWVSDIKGEGGRTAYADSVKGRFTISRDNSKNTLYLQMNSLRAEDTAVYYCARDPWSTEGSFFVLDYWGQGTLVTVSS VL: EIVLTQSPATLSLSPGERATLSCRASQSVDDDLAWYQQKPGQAPRLLIYDASNRATGIPARFSGSGSGTDFTLTISSLEPEDFAVYYCQQYIDAPLTFGQGTKVEIK | 2.52 µg/mL | 0.033 nM | 0.000299 s⁻¹ | 9.16e+06 M⁻¹ s⁻¹ | 0.037 nM | 0.000264 s⁻¹ | 7.2e+06 M⁻¹ s⁻¹ | 0.28 µg/mL
4 | STLM213 (antibody, V domains shown, frameworks VH3-23 / Vk-L6) VH: EVQLLESGGGLVQPGGSLRLSCAASGFTFSFYDMIWVRQAPGKGLEWVSTIRGEGGDTNYADSVKGRFTISRDNSKNTLYLQMNSLRAEDTAVYYCARDPWSTEGSFFVLDYWGQGTLVTVSS VL: EIVLTQSPATLSLSPGERATLSCRASQSVDDDLAWYQQKPGQAPRLLIYDASNRATGIPARFSGSGSGTDFTLTISSLEPEDFAVYYCQQYIDAPLTFGQGTKVEIK | 0.49 µg/mL | 0.014 nM | 0.000108 s⁻¹ | 7.54e+06 M⁻¹ s⁻¹ | 0.008 nM | 0.000124 s⁻¹ | 1.64e+07 M⁻¹ s⁻¹ | 0.34 µg/mL
5 | STLM219 (antibody, V domains shown, frameworks VH3-23 / Vk-L6) VH: EVQLLESGGGLVQPGGSLRLSCAASGFTFSGYDMFWVRQAPGKGLEWVSDIGGEGGSTNYADSVKGRFTISRDNSKNTLYLQMNSLRAEDTAVYYCARDPWSTEGSFFVLDYWGQGTLVTVSS VL: EIVLTQSPATLSLSPGERATLSCRASQSVDDDLAWYQQKPGQAPRLLIYDASNRATGIPARFSGSGSGTDFTLTISSLEPEDFAVYYCQQYIGAPITFGQGTKVEIK | 3.16 µg/mL | 0.027 nM | 0.000201 s⁻¹ | 7.54e+06 M⁻¹ s⁻¹ | 0.022 nM | 0.00023 s⁻¹ | 1.07e+07 M⁻¹ s⁻¹ | 0.29 µg/mL
6 | STLM217 (antibody, V domains shown, frameworks VH3-23 / Vk-L6) VH: EVQLLESGGGLVQPGGSLRLSCAASGFTFSVYDMFWVRQAPGKGLEWVSDIKGEGGETSYADSVKGRFTISRDNSKNTLYLQMNSLRAEDTAVYYCARDPWSTEGSFFVLDYWGQGTLVTVSS VL: EIVLTQSPATLSLSPGERATLSCRASQSVDDDLAWYQQKPGQAPRLLIYDASNRATGIPARFSGSGSGTDFTLTISSLEPEDFAVYYCQQYIGAPITFGQGTKVEIK | 1.69 µg/mL | 0.017 nM | 0.000126 s⁻¹ | 7.27e+06 M⁻¹ s⁻¹ | 0.004 nM | 0.000138 s⁻¹ | 3.81e+07 M⁻¹ s⁻¹ | 0.49 µg/mL
7 | STLM216 (antibody, V domains shown, frameworks VH3-23 / Vk-L6) VH: EVQLLESGGGLVQPGGSLRLSCAASGFTFSSYDMFWVRQAPGKGLEWVSDIKGEGGATNYADSVKGRFTISRDNSKNTLYLQMNSLRAEDTAVYYCARDPWSTEGSFFVLDYWGQGTLVTVSS VL: EIVLTQSPATLSLSPGERATLSCRASQSVDDDLAWYQQKPGQAPRLLIYDASNRATGIPARFSGSGSGTDFTLTISSLEPEDFAVYYCQQYIGAPITFGQGTKVEIK | 1.86 µg/mL | 0.016 nM | 0.000158 s⁻¹ | 9.63e+06 M⁻¹ s⁻¹ | 0.003 nM | 0.000264 s⁻¹ | 7.89e+07 M⁻¹ s⁻¹ | 0.3 µg/mL
8 | STLM222 (antibody, V domains shown, frameworks VH3-23 / Vk-L6) VH: EVQLLESGGGLVQPGGSLRLSCAASGFTFSIYSMFWVRQAPGKGLEWVSDIGGEGGGTSYADSVKGRFTISRDNSKNTLYLQMNSLRAEDTAVYYCARDPWSTEGSFFVLDYWGQGTLVTVSS VL: EIVLTQSPATLSLSPGERATLSCRASQSVDDDLAWYQQKPGQAPRLLIYDASNRATGIPARFSGSGSGTDFTLTISSLEPEDFAVYYCQQYIGAPITFGQGTKVEIK | 1.88 µg/mL | 0.037 nM | 0.000301 s⁻¹ | 8.22e+06 M⁻¹ s⁻¹ | 0.029 nM | 0.000345 s⁻¹ | 1.18e+07 M⁻¹ s⁻¹ | 0.25 µg/mL
9 | STLM221 (antibody, V domains shown, frameworks VH3-23 / Vk-L6) VH: EVQLLESGGGLVQPGGSLRLSCAASGFTFSIYDMFWVRQAPGKGLEWVSYIRGEGGDTNYADSVKGRFTISRDNSKNTLYLQMNSLRAEDTAVYYCARDPWSTEGSFFVLDYWGQGTLVTVSS VL: EIVLTQSPATLSLSPGERATLSCRASQSVDDDLAWYQQKPGQAPRLLIYDASNRATGIPARFSGSGSGTDFTLTISSLEPEDFAVYYCQQYIGAPITFGQGTKVEIK | 2.79 µg/mL | 0.035 nM | 9.61e-05 s⁻¹ | 2.73e+06 M⁻¹ s⁻¹ | 0.022 nM | 0.00013 s⁻¹ | 6.04e+06 M⁻¹ s⁻¹ | 0.39 µg/mL
10 | STLM215 (antibody, V domains shown, frameworks VH3-23 / Vk-L6) VH: EVQLLESGGGLVQPGGSLRLSCAASGFTFSSYDMFWVRQAPGKGLEWVSAIAGEGGRTYYADSVKGRFTISRDNSKNTLYLQMNSLRAEDTAVYYCARDPWSTEGSFFVLDYWGQGTLVTVSS VL: EIVLTQSPATLSLSPGERATLSCRASQSVDDDLAWYQQKPGQAPRLLIYDASNRATGIPARFSGSGSGTDFTLTISSLEPEDFAVYYCQQYIGAPITFGQGTKVEIK | 1.3 µg/mL | 0.025 nM | 0.000172 s⁻¹ | 6.91e+06 M⁻¹ s⁻¹ | 0.01 nM | 0.000369 s⁻¹ | 3.54e+07 M⁻¹ s⁻¹ | 0.29 µg/mL
11 | STLM218 (antibody, V domains shown, frameworks VH3-23 / Vk-L6) VH: EVQLLESGGGLVQPGGSLRLSCAASGFTFSVDSMFWVRQAPGKGLEWVSSIEGNGGATYYADSVKGRFTISRDNSKNTLYLQMNSLRAEDTAVYYCARDPWSTEGSFFVLDYWGQGTLVTVSS VL: EIVLTQSPATLSLSPGERATLSCRASQSVDDDLAWYQQKPGQAPRLLIYDASNRATGIPARFSGSGSGTDFTLTISSLEPEDFAVYYCQQYIGAPITFGQGTKVEIK | 1.33 µg/mL | 0.023 nM | 0.000224 s⁻¹ | 9.89e+06 M⁻¹ s⁻¹ | 0.018 nM | 0.000265 s⁻¹ | 1.45e+07 M⁻¹ s⁻¹ | 0.42 µg/mL
